According to patent US20120052569A1:

Target: monoclonal 2H5 antibody produced by rat-mouse hybridoma 2H5 (FERM BP-11245)
Assay: competitive elution of eTEV-GFPUV from 2H5 sepharose, peptide 0 to 1000 µg/mL, SDS gel

- peptide concentration giving complete competitive elution: 30 µg/mL
B1: eTEV peptide (free peptide used as competitive eluent) (peptide)
peptide: RENLYFQGKDG
